# Data taken from publication doi:10.1101/2020.09.09.287375.
# Biological target: human serum albumin (human) (UniProt P02768)
# Assay: ITC
substance,measurement,value
dalbavancin (peptide),dH,-8.9 kcal/mol
same,stoichiometry N,0.84
